Experimental data reported in US20200040059A1.

Columns and labels:
[1] = target: CD80 (Homo sapiens (Human)) (UniProt P33681); assay: flow cytometry, cells expressing CD80
[2] = target: PD-1 (Homo sapiens (Human)) (UniProt Q15116); assay: flow cytometry, cells expressing PD-1
[3] = target: CD112R (human) (UniProt Q6DKI7); assay: flow cytometry, cells expressing target, 25 nM
[4] = target: T1, CD226 (human) (UniProt Q15762); assay: flow cytometry, cells expressing target, 25 nM
T1 sequence: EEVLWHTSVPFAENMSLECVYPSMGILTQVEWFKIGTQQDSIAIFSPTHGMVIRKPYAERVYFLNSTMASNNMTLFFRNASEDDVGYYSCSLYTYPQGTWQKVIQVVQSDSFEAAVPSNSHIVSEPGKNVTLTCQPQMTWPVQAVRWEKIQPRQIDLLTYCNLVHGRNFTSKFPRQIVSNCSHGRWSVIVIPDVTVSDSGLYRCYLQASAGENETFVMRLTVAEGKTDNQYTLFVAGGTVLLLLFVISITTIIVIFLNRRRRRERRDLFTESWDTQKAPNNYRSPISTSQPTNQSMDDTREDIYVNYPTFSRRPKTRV

[5] = target: T2, CD96 (UniProt P40200); assay: flow cytometry, cells expressing target, 25 nM
T2 sequence (looked up): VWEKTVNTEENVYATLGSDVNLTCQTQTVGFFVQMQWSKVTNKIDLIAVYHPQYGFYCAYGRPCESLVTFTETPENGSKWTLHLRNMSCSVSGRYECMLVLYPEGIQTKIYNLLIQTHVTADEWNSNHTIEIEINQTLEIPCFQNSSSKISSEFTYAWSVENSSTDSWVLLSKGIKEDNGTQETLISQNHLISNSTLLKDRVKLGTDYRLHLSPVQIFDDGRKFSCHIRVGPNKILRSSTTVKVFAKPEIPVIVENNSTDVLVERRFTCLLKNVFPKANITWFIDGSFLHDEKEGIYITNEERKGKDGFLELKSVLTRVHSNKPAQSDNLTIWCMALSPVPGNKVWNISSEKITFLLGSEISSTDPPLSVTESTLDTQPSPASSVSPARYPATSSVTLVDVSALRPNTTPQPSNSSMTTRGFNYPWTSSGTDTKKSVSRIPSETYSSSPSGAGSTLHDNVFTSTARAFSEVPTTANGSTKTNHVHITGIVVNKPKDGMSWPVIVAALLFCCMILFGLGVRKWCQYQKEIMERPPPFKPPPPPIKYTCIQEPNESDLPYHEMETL

[6] = target: T3, TIGIT (human) (UniProt Q495A1); assay: flow cytometry, cells expressing target, 25 nM
T3 sequence: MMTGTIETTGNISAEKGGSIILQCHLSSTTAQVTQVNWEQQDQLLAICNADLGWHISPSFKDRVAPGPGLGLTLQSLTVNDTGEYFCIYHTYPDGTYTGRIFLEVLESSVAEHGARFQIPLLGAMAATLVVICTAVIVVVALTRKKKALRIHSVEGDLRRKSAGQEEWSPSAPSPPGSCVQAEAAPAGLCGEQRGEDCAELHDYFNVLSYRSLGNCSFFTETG

[7] = target: CD28 (human) (UniProt P10747); assay: flow cytometry on HEK293 cells transfected with CD28
[8] = target: PD-L1 (human) (UniProt Q9NZQ7); assay: flow cytometry on HEK293 cells transfected with PD-L1
Sequence of PD-L1 (human) (Q9NZQ7 19-290 limits assumed): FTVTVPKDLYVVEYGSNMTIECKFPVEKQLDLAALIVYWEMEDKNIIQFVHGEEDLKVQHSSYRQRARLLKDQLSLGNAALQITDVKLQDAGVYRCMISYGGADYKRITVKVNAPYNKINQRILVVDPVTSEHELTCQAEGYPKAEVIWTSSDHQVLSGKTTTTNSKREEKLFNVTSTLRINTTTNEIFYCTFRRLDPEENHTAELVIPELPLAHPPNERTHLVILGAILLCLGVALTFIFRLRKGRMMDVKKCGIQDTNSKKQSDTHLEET

[9] = target: CTLA4 (human) (UniProt P16410); assay: flow cytometry on HEK293 cells transfected with CTLA4
Sequence of CTLA4 (human) (P16410 36-223 limits assumed): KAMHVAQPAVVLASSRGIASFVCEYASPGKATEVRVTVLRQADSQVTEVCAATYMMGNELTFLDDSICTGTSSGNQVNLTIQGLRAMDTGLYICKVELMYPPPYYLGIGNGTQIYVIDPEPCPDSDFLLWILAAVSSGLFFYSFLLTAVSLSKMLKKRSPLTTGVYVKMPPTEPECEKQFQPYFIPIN

Sequence of CD112R (human) (Q6DKI7 whole entry): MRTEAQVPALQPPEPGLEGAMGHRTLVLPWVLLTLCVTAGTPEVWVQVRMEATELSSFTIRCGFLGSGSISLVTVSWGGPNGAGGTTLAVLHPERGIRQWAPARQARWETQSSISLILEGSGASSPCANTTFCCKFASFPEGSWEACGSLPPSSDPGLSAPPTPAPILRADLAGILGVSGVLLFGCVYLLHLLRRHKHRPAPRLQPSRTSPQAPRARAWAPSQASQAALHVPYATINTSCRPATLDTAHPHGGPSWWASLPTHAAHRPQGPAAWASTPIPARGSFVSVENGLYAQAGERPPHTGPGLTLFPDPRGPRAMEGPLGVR

variant PD-L1 ECD-Fc L35P, I36S, M97L, K111E (from UniProt Q9NZQ7 19-238) (Fc fusion)
MFI at 20 nM [1]: 155
MFI at 20 nM [2]: 190

variant PD-L1 ECD-Fc M18I, I36T, E53G, M97L, K144E, E199G, V207A (from UniProt Q9NZQ7 19-238) (Fc fusion)
MFI at 20 nM [1]: 47400
MFI at 20 nM [2]: 104

variant PD-L1 ECD-Fc M18V, M97L, F193S, R195G, E200K, H202Q (from UniProt Q9NZQ7 19-238) (Fc fusion)
MFI at 20 nM [2]: 69

CD155 variant IgV-Fc V9L, V11M, P18S, N35S, S54G, Q62K, L79P, L104M, T107M, V115M (from UniProt P15151 24-139) (Fc fusion)
MFI at 25 nM [3]: 893 MFI
MFI at 25 nM [4]: 2320 MFI
MFI at 25 nM [5]: 925 MFI
MFI at 25 nM [6]: 3000 MFI

CD80 IgV-Fc E35D/T57I/L70Q/A71D (from UniProt P33681 35-141) (Fc fusion)
MFI at 66.6 nM [7]: 21300 MFI
MFI at 22.2 nM [8]: 2420 MFI

variant PD-L1 ECD-Fc Y10F, M18V, S99G, Q138R, T203A (from UniProt Q9NZQ7 19-238) (Fc fusion)
MFI at 20 nM [1]: 412
MFI at 20 nM [2]: 70

variant PD-L1 ECD-Fc I36T, I83T, M97L, K144E, P198T (Fc fusion)
MFI at 20 nM [1]: 6220
MFI at 20 nM [2]: 62

CD80 IgV-Fc T13R/C16R/L70Q/A71D (from UniProt P33681 35-141) (Fc fusion)
MFI at 66.6 nM [7]: 16100 MFI
MFI at 66.6 nM [9]: 197000 MFI
MFI at 22.2 nM [8]: 9520 MFI

CD155 variant IgV-Fc P18T, W46C, H49R, S65A, S67V, A76T, L79P, S87T, L104M (from UniProt P15151 24-139) (Fc fusion)
MFI at 25 nM [3]: 803 MFI
MFI at 25 nM [4]: 640 MFI
MFI at 25 nM [5]: 717 MFI
MFI at 25 nM [6]: 918 MFI

CD155 variant IgV-Fc V11A, P18F, D23A, L79P, G80D, V95A, T107M (from UniProt P15151 24-139) (Fc fusion)
MFI at 25 nM [3]: 830 MFI
MFI at 25 nM [4]: 913 MFI
MFI at 25 nM [5]: 33900 MFI
MFI at 25 nM [6]: 45200 MFI

CD155 variant IgV-Fc P18T, G19D, M36T, S54N, L79P, L83Q, F91S, T107M, F108Y (from UniProt P15151 24-139) (Fc fusion)
MFI at 25 nM [3]: 1280 MFI
MFI at 25 nM [4]: 748 MFI
MFI at 25 nM [5]: 726 MFI
MFI at 25 nM [6]: 905 MFI

CD80 IgV-Fc T57I (from UniProt P33681 35-141) (Fc fusion)
MFI at 66.6 nM [7]: 23600 MFI
MFI at 66.6 nM [9]: 394000 MFI
MFI at 22.2 nM [8]: 3380 MFI

CD80 IgV-Fc V22I/L70M/A71D (from UniProt P33681 35-141) (Fc fusion)
MFI at 66.6 nM [7]: 22800 MFI
MFI at 22.2 nM [8]: 33400 MFI

CD80 IgV-Fc M42I/I61V/A71D (from UniProt P33681 35-141) (Fc fusion)
MFI at 66.6 nM [7]: 6070 MFI
MFI at 66.6 nM [9]: 54500 MFI
MFI at 22.2 nM [8]: 4230 MFI

variant PD-L1 ECD-Fc I36S, M41K, M97L, K144Q, R195G, E200K, H202Q, L206F (Fc fusion)
MFI at 20 nM [1]: 68700
MFI at 20 nM [2]: 3500

Fc Control
MFI at 20 nM [1]: 132
MFI at 20 nM [2]: 59

CD155 variant IgV-Fc P18F, E51V, S54G, Q60R, L79Q, E82G, S87T, M90I, F91S, G92R, T107M (from UniProt P15151 24-139) (Fc fusion)
MFI at 25 nM [3]: 1010 MFI
MFI at 25 nM [4]: 15700 MFI
MFI at 25 nM [5]: 61800 MFI
MFI at 25 nM [6]: 46100 MFI

variant PD-L1 ECD-Fc G15A, I36T, V129D, R195G (from UniProt Q9NZQ7 19-238) (Fc fusion)
MFI at 20 nM [2]: 125

CD155 variant IgV-Fc P18T, M55L, T61R, L79P, F91S, V106I, T107M (from UniProt P15151 24-139) (Fc fusion)
MFI at 25 nM [3]: 827 MFI
MFI at 25 nM [4]: 1910 MFI
MFI at 25 nM [5]: 57900 MFI
MFI at 25 nM [6]: 133000 MFI

variant PD-L1 ECD-Fc I36T, M97L, A103V, Q155H (from UniProt Q9NZQ7 19-238) (Fc fusion)
MFI at 20 nM [1]: 128
MFI at 20 nM [2]: 120

CD155 variant IgV-Fc V9I, P18F, A47E, G50S, E68G, L79P, F91S, T107M (from UniProt P15151 24-139) (Fc fusion)
MFI at 25 nM [3]: 752 MFI
MFI at 25 nM [4]: 54300 MFI
MFI at 25 nM [5]: 102000 MFI
MFI at 25 nM [6]: 55200 MFI

CTLA4-Fc (Fc fusion)
MFI at 20 nM [1]: 200000
MFI at 20 nM [2]: 59

CD155 variant IgV-Fc P18S, K70R, L79P, F91S, G111R (from UniProt P15151 24-139) (Fc fusion)
MFI at 25 nM [3]: 854 MFI
MFI at 25 nM [4]: 793 MFI
MFI at 25 nM [5]: 1180 MFI
MFI at 25 nM [6]: 16200 MFI

CD80 IgV-Fc L72P/T79I (from UniProt P33681 35-141) (Fc fusion)
MFI at 66.6 nM [7]: 3400 MFI
MFI at 66.6 nM [9]: 50200 MFI
MFI at 22.2 nM [8]: 6020 MFI

variant PD-L1 ECD-Fc I36T, M97L, Q155H, F193S, N201Y (Fc fusion)
MFI at 20 nM [1]: 1250
MFI at 20 nM [2]: 69

variant PD-L1 ECD-Fc G15A, I36T, V129D (from UniProt Q9NZQ7 19-238) (Fc fusion)
MFI at 20 nM [1]: 136
MFI at 20 nM [2]: 114

CD80 IgV-Fc E35D/M47I/L65P/D90N (from UniProt P33681 35-141) (Fc fusion)
MFI at 66.6 nM [7]: 2530 MFI
MFI at 66.6 nM [9]: 4410 MFI
MFI at 22.2 nM [8]: 4030 MFI

variant PD-L1 ECD-Fc G15A, I36T, M97L, K111E, H202Q (from UniProt Q9NZQ7 19-238) (Fc fusion)
MFI at 20 nM [2]: 112

CD80 IgV-Fc P51A/A71D (from UniProt P33681 35-141) (Fc fusion)
MFI at 66.6 nM [7]: 4260 MFI
MFI at 22.2 nM [8]: 5530 MFI

CD80 IgV-Fc L25S/E35D/M47I/D90N (from UniProt P33681 35-141) (Fc fusion)
MFI at 66.6 nM [7]: 4840 MFI
MFI at 66.6 nM [9]: 61300 MFI
MFI at 22.2 nM [8]: 20900 MFI

CD80 IgV-Fc M47V/N48H (from UniProt P33681 35-141) (Fc fusion)
MFI at 66.6 nM [7]: 14600 MFI
MFI at 66.6 nM [9]: 207000 MFI
MFI at 22.2 nM [8]: 146000 MFI

CD80 IgV-Fc S44P/A71D (from UniProt P33681 35-141) (Fc fusion)
MFI at 66.6 nM [7]: 2740 MFI
MFI at 66.6 nM [9]: 8840 MFI
MFI at 22.2 nM [8]: 6310 MFI

CD155 variant IgV-Fc P18S, H59N, V75A, L79P, A81T, F91S, L104M, T107M (from UniProt P15151 24-139) (Fc fusion)
MFI at 25 nM [3]: 915 MFI
MFI at 25 nM [4]: 676 MFI
MFI at 25 nM [5]: 759 MFI
MFI at 25 nM [6]: 800 MFI

CD155 variant IgV-Fc P18F, H40Q, T61K, Q62K, L79P, F91S, L104M, T107V (from UniProt P15151 24-139) (Fc fusion)
MFI at 25 nM [3]: 918 MFI
MFI at 25 nM [4]: 853 MFI
MFI at 25 nM [6]: 108000 MFI

CD155 variant IgV-Fc V10F, T15S, P18L, R48Q, L79P, F91S, T107M, V115M (from UniProt P15151 24-139) (Fc fusion)
MFI at 25 nM [3]: 901 MFI
MFI at 25 nM [4]: 792 MFI
MFI at 25 nM [5]: 998 MFI
MFI at 25 nM [6]: 1170 MFI

variant PD-L1 ECD-Fc K28I, S99G (Fc fusion)
MFI at 20 nM [1]: 693
MFI at 20 nM [2]: 830

CD80 IgV-Fc T79P (from UniProt P33681 35-141) (Fc fusion)
MFI at 66.6 nM [7]: 2660 MFI
MFI at 66.6 nM [9]: 2000 MFI
MFI at 22.2 nM [8]: 4410 MFI

CD155 variant IgV-Fc P18T, T39S, S52P, S54R, L79P, F91S, T107M (from UniProt P15151 24-139) (Fc fusion)
MFI at 25 nM [3]: 1040 MFI
MFI at 25 nM [4]: 744 MFI
MFI at 25 nM [5]: 1220 MFI
MFI at 25 nM [6]: 45900 MFI

CD80 IgV-Fc A71D (from UniProt P33681 35-141) (Fc fusion)
MFI at 66.6 nM [7]: 16800 MFI
MFI at 66.6 nM [9]: 220000 MFI
MFI at 22.2 nM [8]: 29600 MFI

CD80 IgV-Fc M47I/E88D (from UniProt P33681 35-141) (Fc fusion)
MFI at 66.6 nM [7]: 7340 MFI
MFI at 66.6 nM [9]: 105000 MFI
MFI at 22.2 nM [8]: 97700 MFI
